Tests used:
Beta TC-6 cells = assay: CAT assay for promoter activity in Beta TC-6 cells; format: cell-based, mouse; details: compared to human insulin promoter fragments
Description: FIG. 2 is a plot of the CAT assay for HIP activity in Beta TC-6 cells.
FIG. 3 is a plot of the CAT assay for HIP promoter construct expression activity BL promoter construct expression activity in Beta TC-6 cells.
(§1) In our methodological approach, activity and specificity of BLs were determined by CAT and mCherry assays in PDX-1+PC and HEK293 cell lines vs PDX-1—human pancreatic ductal epithelial (HPDE) cells. […] Cytotoxicity was determined by MTS assay. 1M PANC-1 cells were injected ip into 65 SCID mice; two weeks later, mice received BL1-vTK, RIP-vTK, CMV-vTK, or pVAX1 empty vector control (35 ug liposomal DNA/mouse/tail vein followed by two weeks of GCV (40 mg/kg, ip, bid; N=15/group). Glucose levels were measured on days 14 and 60 after treatment. Tumor volume was measured in each mouse. Statistical analysis was performed via paired T test; p<0.05=significant.

PANC-1 = assay: relative CAT expression in PANC-1 cells; format: cell-based, human; details: PANC-1 (high PDX-1); compared to RIP and HIP 1400
Description: FIG. 4 is a plot of the assay of the relative CAT expression being driven by BL-1 promoter compared to RIP and HIP 1400 promoter constructs in human pancreas cancer cell line, PANC-1, which have high expression of PDX-1, and benign human pancreatic ductal epithelial cell line HPDE, which have no expression of PDX-1 and are a negative control cell line.
as §1

[1] = test system: human embryonic kidney cell line 293 stably transfected with PDX-1 or mutated PDX-1 P47D; assay: relative CAT expression in 293 PDX-1 vs 293 P47D cells; format: cell-based; details: 293 stably transfected with PDX-1 or PDX-1 P47D; compared to RIP and three HIP fragments
From the text: FIG. 6 is a plot of the assay of the relative CAT expression being driven by BL-1 promoter compared to RIP and three HIP fragments in human embryonic kidney cell line 293, (which have no PDX-1 expression), stably transfected with PDX-1 or mutated PDX-1 P47D.

MIA PaCa2 = assay: relative CAT expression in MIA PaCa2 vs MIA PaCa2 PDX-1 cells; format: cell-based, human; details: MIA PaCa2 (very low PDX-1) vs MIA PaCa2 stably transfected with PDX-1; compared to RIP and three HIP fragments
From the text: FIG. 5 is a plot of the assay of the relative CAT expression being driven by BL-1 promoter compared to RIP and three HIP fragments in human pancreas cancer cell line, MIA PaCa2, which have very low PDX-1 expression vs MIA PaCa2 cells stably transfected with PDX-1.

[2] = test system: PDX-1 stably expressing PC and HEK cells; assay: CAT and mCherry reporter assays in PDX-1+ PC and HEK293 cell lines; format: cell-based, human
Description: as §1

HPDE cells = assay: CAT expression in HPDE cells (PDX-1 negative, PDX-1 co-transfection dose curve); format: cell-based, human
Description: FIG. 7 is a plot of the assay of the BL-CAT driving CAT expression in response to increasing doses of PDX-1 in human pancreatic ductal epithelial cells, which have very low expression of PDX-1.
FIG. 8 is a plot of another assay of the BL-CAT driving CAT expression in response to increasing doses of PDX-1 in human pancreatic ductal epithelial cells, which have very low expression of PDX-1.
as §1

B1: BL-1: synthetic 550 bp promoter, SEQ ID NO: 1; three repeated C2/E2/G2/A3/CRE1 and three repeated GG2/A2/C1/E1/A1 motifs (nucleic acid)
DNA: GACAGCAGCGCAAAGAGCCCCGCCCTGCAGCCTCCAGCTCTCCTGGTCTAATGTGGAAAGTGGCCCAGGTGAGGGCTTTGCTCTCCTGGAGACATTTGCCCCCAGCTGTGAGCAGGGACAGGTCTGGCCACCGGGCCCCTGGTTAAGACTCTAATGACCCGCTGGTCCCAGGGACAGGTCTGGCCACCGGGCCCCTGGTTAAGACTCTAATGACCCGCTGGTCCCAGGGACAGGTCTGGCCACCGGGCCCCTGGTTAAGACTCTAATGACCCGCTGGTCCGGAAATGGTCCGGAAATTGCAGCCTCAGCCCCCAGCCATCTGCCGACCCCCCCACCCCAGGCCCTAATGGGCGGAAATGGTCCGGAAATTGCAGCCTCAGCCCCCAGCCATCTGCCGACCCCCCCACCCCAGGCCCTAATGGGCGGAAATGGTCCGGAAATTGCAGCCTCAGCCCCCAGCCATCTGCCGACCCCCCCACCCCAGGCCCTAATGGGCGGTAGGGGAGATGGGCTCTGAGACTATAAAGCCAGCGGGGGCCCAGCAGCCCTC
Beta TC-6 cells
  expression of CAT: equal to or better than human insulin promoter fragments
PANC-1
  relative CAT expression: to a far greater degree than HIP and RIP
[1]
  relative CAT expression: far more effective than RIP or HIP
MIA PaCa2
  relative CAT expression: more effective than RIP or HIP
[2]; among the BL promoters, CAT and mCherry assays
  activity of expressing reporter genes: highest activity
[2]; vs CMV-driven expression
  CAT and mCherry reporter expression: equal to CMV-driven expression
[2]; vs RIP-driven expression, p<0.05
  CAT and mCherry reporter expression: significantly greater than RIP-driven expression
HPDE cells; HPDE cells, co-transfection of PDX-1
  CAT expression in response to increasing doses of PDX-1: dose dependent manner
HPDE cells; PDX-1-negative cell lines
  CAT expression: No CAT expression was detected

Reference: patent US9644205B2, “Synthetic promoter for modulating gene expression” (The Regents of the University of California, priority 2012, dated 2017)
